The values that follow come from article PMC4800418, “A two-component system regulates gene expression of the type IX secretion component proteins via an ECF sigma factor” (Scientific Reports, 2016).

Data set [1] deals with T1, rSigP (ECF sigma factor) (Porphyromonas gingivalis ATCC 33277) (UniProt B2RHE8).
T1 sequence: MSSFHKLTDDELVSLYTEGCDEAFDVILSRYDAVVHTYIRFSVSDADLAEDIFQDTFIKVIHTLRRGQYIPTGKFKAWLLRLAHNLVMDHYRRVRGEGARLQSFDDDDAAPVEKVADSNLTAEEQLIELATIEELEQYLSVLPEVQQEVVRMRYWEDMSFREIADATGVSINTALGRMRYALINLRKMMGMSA
Description: EMSA. (In general: Mobility shift assays separate free from complexed probe on a gel.)

Data set [2] concerns the target T2, recombinant PorX (rPorX) (Porphyromonas gingivalis ATCC 33277, UniProt B2RJJ3 1-518).
T2 construct: also called PGN_1019; source: E. coli BL21(DE3), purified (Ni-NTA agarose)
T2 sequence: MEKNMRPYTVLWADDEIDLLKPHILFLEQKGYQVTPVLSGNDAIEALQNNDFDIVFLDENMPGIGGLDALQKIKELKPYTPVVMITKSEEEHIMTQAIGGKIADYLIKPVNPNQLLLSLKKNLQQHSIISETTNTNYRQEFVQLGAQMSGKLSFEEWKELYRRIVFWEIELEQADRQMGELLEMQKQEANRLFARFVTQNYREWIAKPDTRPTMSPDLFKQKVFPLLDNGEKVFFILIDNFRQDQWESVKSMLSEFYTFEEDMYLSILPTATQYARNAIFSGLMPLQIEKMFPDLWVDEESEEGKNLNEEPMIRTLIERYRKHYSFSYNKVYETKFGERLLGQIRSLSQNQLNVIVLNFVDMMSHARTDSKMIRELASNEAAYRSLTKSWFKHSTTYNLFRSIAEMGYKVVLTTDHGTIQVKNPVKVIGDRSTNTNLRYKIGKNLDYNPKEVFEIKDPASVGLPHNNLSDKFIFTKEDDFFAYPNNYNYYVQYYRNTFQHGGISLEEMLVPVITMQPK
Description: SPR. Conditions: both partners purified.

Data set [3] has as its target T3, recombinant PorX (rPorX) (Porphyromonas gingivalis ATCC 33277, UniProt B2RJJ3 1-518).
T3 chain: T2 sequence
Description: SPR. For orientation: Surface plasmon resonance follows binding to a sensor surface in real time, without labels.

“ACATTATTTATATATCTGCTTCGCTGCTCTCCCCGAATCCTGCGCTAAGGCAGTTTTCAGAGGAAACGAATGCTTTTATACTTTGCATCTCTATTCTTCGTATTGCTCAATGGGAAAGAA (double strand) [porK 5'-adjacent region probe]”: the binding entry in data set [1] is reported as “no binding”. Regarding “ATAATTATTGTTGTGAGGTAGGTTATGCAAATCTACGAACGAGATGTTCTAAATACCGATTCGCGCAAAAATACAATATCTTTGCTGCATAAGGCGTTGA (double strand) [porT promoter probe]”, in data set [1], the binding result was “binds”. Consider “ATTTCGTTCGTTTTGTTTTGTATTCTTATCGGGGTCTATGAATATTCAATATCGTAAACGGCAGAACTGCTTCGGCTATTGTGCTACCACGATCATTTTCTTGGCCATGGAGGCCGTCTG (double strand) [porV promoter probe]”, for which the binding entry in data set [1] is “binds”. Turning to “GCAAAGAGGATTTTTTCTTCAACGAAGAAGAGTACTGATAATGTAATCTCCTTAAGCGAATATGCCCCGGATGTGCAATAATAGCACTCGGGGCTTCGTTTTACCACCGTGGCATCAGTC (double strand) [porP promoter probe]”, the binding entry in data set [1] is listed as “binds”. Same read-out and setting: with “GGCTATACGCAAAGCAGTCAAGTCCATTCTCTCCGAGGATTCGTCCTTAGCTGTCGAAGATATTATCAAGCGAGCATTACGAATGTTATAACCTTTTCTC (double strand) [sov 5'-adjacent region probe]” the entry was “no binding”; with “TTAGTGACTGAAATGCGATTGCCCTGTTACAAACGGACTTGATACAACATTTTCCCTACTTTTGCGTTAGTTTCCTATAGTAATAAACAACACTATGGTG (double strand) [ruvA promoter probe]”, “binds”.

B1: recombinant SigP (rSigP) (natural protein)
chain: T1 sequence
notes: source: E. coli BL21(DE3), purified (Ni-NTA agarose)
B1: the Kd with recombinant PorX (rPorX) [2] is 78.3 nM. In the data set with recombinant PorX (rPorX) [3], the koff stood at 0.000529 s⁻¹.

One may read the Kd as the concentration at which binding is half-saturated. Usually koff stands for a measure of how fast the partners let go of each other.
